# Laboratory results from patent US20240092844.
# System: KLF6-CDK200 RTF 8 phosphate-contact mutant 8 phosphate-contacting Arg to Gln (Homo sapiens)
# Assay: cell_activity
# Details: on-target activity reduced 12%; only CDKN1C upregulated in RNA-seq
sequence,measurement,value
TTGAAACTGAAAATACTACATTATGCTA (double strand) [CDKN1C target 200],binding signal (% of unmodified CDK200),88
